Percent of input bound data for one substance are collected here from PMC4613674.

This assay has as its target MBP–Cas5–Cas7 complex (Methanothermobacter thermautotrophicus) (Methanothermobacter thermautotrophicus ΔH). As to the kind of experiment: pull-down; MBP–Cas5–Cas7 (20 μg) held on amylose resin, His6–Cas8′ (20 μg) added, final volume 500 μl, 2–4 h at 4°C; 20 mM Tris/HCl pH 8.0, 150 mM NaCl, 1 mM EDTA, 1% Tween; western blots with anti-His6 and anti-MBP; with or without pre-incubation of Cas5–Cas7 with crRNA1.

Where only a bound is given, the exact number is not on record here.

In the case of “N-terminal hexahistidine-tagged Mth Cas8′ (natural protein)”, the percent of input bound is under 10%.
